Experiments:
[1] = target: fluorescently-labeled NCP carrying H2AK13ub and H2AK15ub (NCP^ub) (human) (UniProt P0CG48); experiment: fluorescence polarisation
[2] = target: fluorescently-labeled nucleosome core particle (NCP) (human); experiment: fluorescence polarisation

| Kd [1] | Kd [2] | Substance |
| --- | --- | --- |
| 1400 nM | – | RNF168 MIU2-LRM (aa 430–481) (from UniProt Q8IYW5 430-481) (domain or fragment) |
| – | 400 nM | RNF168 RING domain (RNF168^R, aa 1–94) (from UniProt Q8IYW5 1-94) (domain or fragment) |
| 50 nM | 120 nM | full-length human RNF168 (RNF168^FL, aa 1–571) (from UniProt Q8IYW5 1-571) (natural protein) |

— PMC10939898
